Laboratory results as given in patent US20200306340A1 (ACCELERON PHARMA, published 2020).

Tests used:
activin A [1] = target: T1, activin A (UniProt P08476 311-426); experiment: cell-based or functional assay
T1 sequence (looked up): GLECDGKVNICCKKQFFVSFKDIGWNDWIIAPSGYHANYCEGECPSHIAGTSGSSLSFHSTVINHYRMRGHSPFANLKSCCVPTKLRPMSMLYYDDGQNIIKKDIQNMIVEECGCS

GDF11 [2] = target: T2, GDF11 (UniProt O95390 299-407); experiment: cell-based or functional assay
T2 sequence (looked up): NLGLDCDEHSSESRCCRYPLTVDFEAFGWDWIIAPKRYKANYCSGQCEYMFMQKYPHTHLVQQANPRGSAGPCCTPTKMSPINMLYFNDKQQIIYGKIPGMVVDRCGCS

BMP9 = target: T3, BMP9 (UniProt Q9UK05 320-429); experiment: Biacore SPR; receptor-Fc captured by anti-Fc antibody, ligand injected; transient interaction
T3 construct: also called GDF2
T3 sequence (looked up): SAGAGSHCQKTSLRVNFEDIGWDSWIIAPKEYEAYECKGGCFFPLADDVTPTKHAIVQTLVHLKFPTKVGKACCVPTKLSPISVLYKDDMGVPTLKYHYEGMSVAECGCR

BMP6 = target: T4, BMP6 (UniProt P22004 382-513, limits assumed); experiment: Biacore SPR; receptor-Fc captured by anti-Fc antibody, ligand injected
T4 sequence (looked up): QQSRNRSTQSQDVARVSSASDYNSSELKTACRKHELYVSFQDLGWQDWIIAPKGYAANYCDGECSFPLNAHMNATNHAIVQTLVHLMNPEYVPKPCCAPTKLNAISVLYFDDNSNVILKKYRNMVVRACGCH
Experimental: (§1) Ligands were injected and allowed to flow over the captured receptor protein.

activin B = target: T5, activin B (UniProt P09529 293-407); experiment: as above
T5 sequence (looked up): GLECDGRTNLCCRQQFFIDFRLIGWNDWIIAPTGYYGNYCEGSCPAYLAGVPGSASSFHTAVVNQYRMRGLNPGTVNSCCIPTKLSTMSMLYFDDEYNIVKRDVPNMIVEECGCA
Experimental: as §1

GDF8 = target: T6, GDF8 (UniProt O14793 267-375); experiment: as above
T6 construct: also called myostatin
T6 sequence (looked up): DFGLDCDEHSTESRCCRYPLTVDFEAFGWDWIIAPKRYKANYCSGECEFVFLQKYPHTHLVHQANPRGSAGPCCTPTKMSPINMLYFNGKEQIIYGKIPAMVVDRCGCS
Experimental: as §1

activin A [3] = target: T1, activin A; experiment: as above
Experimental: as §1

GDF3 = target: T7, GDF3 (UniProt Q9NR23 251-364); experiment: as above
T7 sequence (looked up): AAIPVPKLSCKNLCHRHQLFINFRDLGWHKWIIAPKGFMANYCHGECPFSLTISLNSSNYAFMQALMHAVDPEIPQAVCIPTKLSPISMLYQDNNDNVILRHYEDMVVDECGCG
Experimental: as §1

GDF11 [4] = target: T2, GDF11; experiment: as above
Experimental: as §1

BMP10 = target: T8, BMP10 (UniProt O95393 317-424); experiment: as above
T8 sequence (looked up): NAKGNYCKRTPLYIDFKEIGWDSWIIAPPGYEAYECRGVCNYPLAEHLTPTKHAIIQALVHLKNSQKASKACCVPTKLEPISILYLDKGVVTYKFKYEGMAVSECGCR
Experimental: as §1

Molecule: ActRIIB-Fc A64 (20-134) (from UniProt Q13705 20-134) (Fc fusion)
- Activin Inhibition Activity, KI (A-204 CAGA12 luciferase reporter gene assay) (activin A [1]): 1000 nM
- GDF11 Inhibition Activity, KI (A-204 CAGA12 luciferase reporter gene assay) (GDF11 [2]): 1000 nM

B1: ALK4-Fc:ActRIIB-Fc heterodimer (Fc fusion)
chain 1: SGPRGVQALLCACTSCLQANYTCETDGACMVSIFNLDGMEHHVRTCIPKVELVPAGKPFYCLSSEDLRNTHCCYTDYCNRIDLRVPSGHLKEPEHPSMWGPVE
chain 2: GRGEAETRECIYYNANWELERTNQSGLERCEGEQDKRLHCYASWRNSSGTIELVKKGCWLDDFNCYDRQECVATEENPQVYFCCCEGNFCNERFTHLPEAGGPEVTYEPPPTAPT
- Kd (BMP9): 3.4 nM
- Kd (BMP6): 2.7 nM
- koff (BMP6): 0.0055 s⁻¹
- kon (BMP6): 2e+06 M⁻¹ s⁻¹
- Kd (activin B): 0.006 nM
- koff (activin B): 4e-05 s⁻¹
- kon (activin B): 7.1e+06 M⁻¹ s⁻¹
- Kd (GDF8): 0.55 nM
- koff (GDF8): 0.00021 s⁻¹
- kon (GDF8): 390000 M⁻¹ s⁻¹
- Kd (activin A [3]): 0.012 nM
- koff (activin A [3]): 0.00015 s⁻¹
- kon (activin A [3]): 1.3e+07 M⁻¹ s⁻¹
- Kd (GDF3): 4.9 nM
- koff (GDF3): 0.017 s⁻¹
- kon (GDF3): 3.4e+06 M⁻¹ s⁻¹
- Kd (GDF11 [4]): 0.003 nM
- koff (GDF11 [4]): 0.00011 s⁻¹
- kon (GDF11 [4]): 3.8e+07 M⁻¹ s⁻¹
- Kd (BMP10): 0.074 nM
- koff (BMP10): 0.0041 s⁻¹
- kon (BMP10): 5.6e+07 M⁻¹ s⁻¹
